Numbering of substitutions follows the chain as printed.
B1: 20E6_H0L1 (antibody, human IgG1, kappa, V domains shown)
VH: QVQLVQSGAEVKKPGASVKVSCKASGYTFTSYWMHWVRQAPGQGLEWMGRIDPNSGGIKYNEKFKSRVTMTRDTSISTAYMELSRLRSDDTAVYYCARWDYGGYFDVWGQGTLVTVSS
VL: DIQMTQSPSSLSASVGDRVTITCRASQDITNYLNWYQQKPGKAVKLLIYYTSRLHSGVPSRFSGSGSGTDYTLTISSLQPEDFATYFCQQGDTLPWTFGQGTKLEIKR
B2: 20E6_H1L1 (antibody, human IgG1, kappa, V domains shown)
VH: B1 VH with M48I, M70L, R72V
VL: B1 VL
B3: 20E6_H4L1 (antibody, human IgG1, kappa)
heavy: not shown
light: DIQMTQSPSSLSASVGDRVTITCRASQDITNYLNWYQQKPGKAVKLLIYYTSRLHSGVPSRFSGSGSGTDYTLTISSLQPEDFATYFCQQGDTLPWTFGQGTKLEIKRTVAAPSVFIFPPSDEQLKSGTASVVCLLNNFYPREAKVQWKVDNALQSGNSQESVTEQDSKDSTYSLSSTLTLSKADYEKHKVYACEVTHQGLSSPVTKSFNRGEC
B4: 20E6_H3L1 (antibody, human IgG1, kappa)
heavy: not shown
light: B3 light
B5: 28G11_mIgG2a (antibody, V domains shown)
VH: EVKLVESGGGLVQPGGSLSLSCAASGFTFTDYYMSWVRQPPGKALEWLGFIRNKPNGYTTEYSASVKGRFTISRDNSQSILYLQMNVLRAEDSATYYCARYTGGGYFDYWGQGTTLTVSS
VL: DIQMTQTTSSLSASLGDRLTISCRASQDISNYLNWYQQKPDGTVKLLIYYTSRLHSGVPSRFSGSGSGTDYSLTISNLEQADIATYFCQQGDTLPWTFGGGTKLEIK
B6: 22F9_H5L0 (antibody, human IgG1, kappa)
heavy: not shown
light: DIQLTQSPSSLSASVGDRVTITCRASKSVSTSGYSYMHWYQQKPGKAPKLLIYLASNLESGVPSRFSGSGSGTDFTLTISSLQPEDFATYYCQHSRELPYTFGGGTKVEIKRTVAAPSVFIFPPSDEQLKSGTASVVCLLNNFYPREAKVQWKVDNALQSGNSQESVTEQDSKDSTYSLSSTLTLSKADYEKHKVYACEVTHQGLSSPVTKSFNRGEC
B7: 22F9_H4L0 (antibody, human IgG1, kappa)
heavy: not shown
light: B6 light
B8: 22F9_H5L2 (antibody, human IgG1, kappa)
heavy: not shown
light: B6 light with A13V, V19A, A47P, D74H, L82V, V108L
B9: 22F9_H5L1 (antibody, human IgG1, kappa)
heavy: not shown
light: B6 light with A47P, D74H
B10: 22F9_H3L0 (antibody, human IgG1, kappa, V domains shown)
VH: QVQLVQSGAEVKKPGASVKVSCKASGYTFTSYWMHWVRQAPGQGLEWIGMIHPNSGSTNYNEKFKSRVTLTVDKSSSTAYMELSSLRSEDTAVYYCAYYDYDGFFDVWGQGTLVTVSS
VL: DIQLTQSPSSLSASVGDRVTITCRASKSVSTSGYSYMHWYQQKPGKAPKLLIYLASNLESGVPSRFSGSGSGTDFTLTISSLQPEDFATYYCQHSRELPYTFGGGTKVEIKR
B11: 22F9_H4L2 (antibody, human IgG1, kappa)
heavy: not shown
light: B6 light with A13V, V19A, A47P, D74H, L82V, V108L
B12: H0L0 (antibody, human IgG1, kappa, V domains shown)
VH: B10 VH with I48M, L70M, V72R, K74T, S76T, A79V, Y98R
VL: B10 VL
notes: also called 22F9_H0L0
B13: H0L2 (antibody, human IgG1, kappa, V domains shown)
VH: B10 VH with I48M, L70M, V72R, K74T, S76T, A79V, Y98R
VL: B10 VL with A13V, V19A, A47P, D74H, L82V, V108L
notes: also called 22F9_H0L2
B14: H0L1 (antibody, human IgG1, kappa, V domains shown)
VH: B10 VH with I48M, L70M, V72R, K74T, S76T, A79V, Y98R
VL: B10 VL with A47P, D74H
notes: also called 22F9_H0L1
B15: H1L2 (antibody, human IgG1, kappa, V domains shown)
VH: B10 VH with L70M, K74T, S76T, A79V
VL: B10 VL with A13V, V19A, A47P, D74H, L82V, V108L
notes: also called 22F9_H1L2
B16: 22F9_H2L1 (antibody, human IgG1, kappa, V domains shown)
VH: B10 VH with K74T, S76T
VL: B10 VL with A47P, D74H
B17: 22F9_H3L1 (antibody, human IgG1, kappa, V domains shown)
VH: B10 VH
VL: B10 VL with A47P, D74H
B18: 22F9_H2L0 (antibody, human IgG1, kappa, V domains shown)
VH: B10 VH with K74T, S76T
VL: B10 VL

Molecular target: T1, fusion protein of a human IgG1 Fc domain and human LAP-TGFβ1 (human, UniProt P01137 30-390)
T1 construct: printed both as Fc-huB1 and LAP-TGFβ-Fc; also called Fc-huB1; Fc-human LAP
T1 sequence (P01137 30-390 limits assumed): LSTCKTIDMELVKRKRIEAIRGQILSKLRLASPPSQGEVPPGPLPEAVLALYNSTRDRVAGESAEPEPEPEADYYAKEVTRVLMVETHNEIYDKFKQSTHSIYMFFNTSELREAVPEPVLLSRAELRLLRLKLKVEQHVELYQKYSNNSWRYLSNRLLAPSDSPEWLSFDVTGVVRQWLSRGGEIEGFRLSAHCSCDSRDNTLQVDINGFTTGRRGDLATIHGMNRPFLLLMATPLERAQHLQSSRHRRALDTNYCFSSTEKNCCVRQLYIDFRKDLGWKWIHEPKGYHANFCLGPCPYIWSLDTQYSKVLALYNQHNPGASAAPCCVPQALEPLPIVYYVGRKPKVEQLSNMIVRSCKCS
Assay: BLI (Octet)

Row | Kd [nM] | koff [s⁻¹] | kon [M⁻¹ s⁻¹] | Binder
1 | 0.51 | 0.000814 | 1.59e+06 | B1
2 | 0.48 | 0.000677 | 1.41e+06 | B2
3 | 0.47 | 0.000729 | 1.56e+06 | B3
4 | 0.47 | 0.000702 | 1.48e+06 | B4

Molecular target: T2, human LAP-TGFβ1 overexpressed on cells (human, UniProt P01137 30-390)
T2 sequence (P01137 30-390): as the sequence (P01137 30-390 limits assumed) above
Assay: cell-based or functional assay

Row | IC50 of inhibition of TGFβ1 activation [µg/mL] | Binder
5 | 1.6 | B5

Molecular target: murine LAP-TGFβ1 overexpressed on cells (mouse, UniProt P04202 30-390)
Sequence (P04202 30-390): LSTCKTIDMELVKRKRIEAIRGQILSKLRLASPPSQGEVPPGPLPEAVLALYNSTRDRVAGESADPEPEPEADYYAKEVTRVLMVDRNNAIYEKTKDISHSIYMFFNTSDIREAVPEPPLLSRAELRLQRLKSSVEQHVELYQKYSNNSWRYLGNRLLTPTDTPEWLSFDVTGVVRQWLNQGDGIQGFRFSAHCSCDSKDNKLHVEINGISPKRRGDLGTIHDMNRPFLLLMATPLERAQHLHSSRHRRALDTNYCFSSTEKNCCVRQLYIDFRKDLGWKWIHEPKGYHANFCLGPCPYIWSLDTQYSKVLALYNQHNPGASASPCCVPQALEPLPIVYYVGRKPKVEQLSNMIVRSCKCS
Assay: cell-based or functional assay

Row | IC50 of inhibition of TGFβ1 activation [µg/mL] | Binder
6 | 0.8 | B5

Molecular target: T1, fusion protein of a human IgG1 Fc …
Assay: BLI, signal change on binding
Description: (§1) Binding to human TGFβ1 of a subset of candidates was also tested by bio-layer interferometry (Octet). A streptavidin coated tip was equilibrated for 60 seconds in binding buffer (10 mM sodium phosphate, 150 mM sodium chloride, 1% bovine serum albumin, 0.05% sodium azide). The tip was then dipped in 10 μg/mL biotinylated antibody in binding buffer. After 15 seconds, the tip was washed in binding buffer for 60 seconds, and then dipped in 0-24 nM Fc-human LAP. Analyte association was measured for 5 minutes. The tip was transferred to binding buffer alone, and analyte dissociation was measured for 5 minutes. The association and dissociation data were fit to a 1:1 binding model.

Row | Binding (nm) | Binder
7 | 0.13 | B6
8 | 0.057 | B7
9 | 0.06 | B8
10 | 0.08 | B9
11 | 0.023 | B10
12 | 0.07 | B11

Molecular target: T1, fusion protein of a human IgG1 Fc …
Assay: BLI, antibody on tip, 1:1 model
Description: as §1

Row | Kd [nM] | koff [s⁻¹] | kon [M⁻¹ s⁻¹] | Binder
13 | 3.35 | 0.0017 | 510000 | B6
14 | 1.63 | 0.00132 | 810000 | B7
15 | 3.91 | 0.00246 | 629000 | B8
16 | 2.34 | 0.00122 | 519000 | B9
17 | 2.75 | 0.00214 | 778000 | B10
18 | 2.3 | 0.00137 | 598000 | B11

Molecular target: T2, human LAP-TGFβ1 overexpressed on cells
Assay: flow cytometry; black bar HT1080-huB1, grey bar HT1080
Description: First, the ability of 22F9H0L0, HILO, H2L0, H3L0, H4L0, H5L0, H0L1, H1L1, H2L1, H3L1, H4L1, H5L1, H0L2, H1L2, H2L2, H3L3, H4L2, and H5L2 to bind to HT1080 cells overexpressing human TGFβ1 was tested by flow cytometry. HT1080 cells over-expressing human LAP-TGFβ1 were placed in a round-bottom 96-well plate at density of 40,000 cells/well. The cells were washed with FACS buffer (25 mM HEPES, 2 mM EDTA, 2% fetal bovine serum in Hank's Balanced Salt Solution). 50 μL of 1:200 diluted TruStain Human FcX (BioLegend) was added to each well, followed by 50 μL of 100 ng/μL of humanized 22F9 construct. The antibody was allowed to bind for 20 minutes. The cells were washed twice with FACS buffer. The cells were labeled for 15 minutes with Alexa647-anti Human IgG (Jackson Immunoresearch), washed twice with FACS buffer, and analyzed by flow cytometry.

Row | Binder | binding result
19 | B12 | no binding (tested: single dose, 50 µL of 100 ng/µL)
20 | B13 | no binding (tested: single dose, 50 µL of 100 ng/µL)
21 | B14 | no binding (tested: single dose, 50 µL of 100 ng/µL)
22 | B15 | no binding (tested: single dose, 50 µL of 100 ng/µL)
23 | B16 | binds
24 | B17 | binds
25 | B18 | binds
